For the data set, the system named is MS2 coat protein. As to the kind of experiment: apparent KD of MS2 coat protein; designed switch direction (-1 OFF switch, 1 ON switch): -1; higher = weaker reporter binding. The essentials: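 Normalised cluster fluorescence was curve-fitted, and each design's median over clusters is its apparent KD. Before this, SNAP-549-labelled MS2 coat protein was titrated from 0.7 or 1.5 nM, doubling to 3 µM, over RNA switches transcribed on Illumina chips by stalled E. coli RNA polymerase. Titrations had no input, 200 uM small-molecule ligand, or an oligonucleotide input, and steps lasted 0.8–1.5 h (lowest) to 10–20 min (highest).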

The mark [1] stands for this setting: Eterna round: R95, input ligand: microRNA oligo, concentration not stated.
[2] abbreviates: Eterna round: R95, input ligand: FMN 200 uM.
The mark [3] stands for this setting: Eterna round: R95, input ligand: none.

With “GGUGCGUAUGUGAGGAUAUGCUGGUCCUUGGCUCGGCAGAAGGCACAUGAGGAUCACCCAUGUGGUGUCGUACA [salish99_Bmod_ex4_072] (puzzle: Brourd's mod of Exclusion 4)”, under setting [1], the “apparent KD of MS2 coat protein” value is 73.5 nM.
Still for that read-out and setting: in the case of “GGUGGACAUGAGGAUCACCCAUGUGAGGAUAUCGGCCGGUUCGUGGUGGCUGGCUUCUCGAGAAGGCGCAUAGU [Exclusion 1 V74] (puzzle: Exclusion 1)” it was 46.4 nM; in that of “GGUGGACAUGAGGAUCACCCAUGUGAGGAUAUCGGCUGGCUACUGGCUGACGGCUGCUCGAGAAGGCGCAUUGU [Exclusion 1 V87] (puzzle: Exclusion 1)”, 38.4 nM.
With “GGUGGGCUAGGAUAUGCUUUGGGUGGGCAUUCCUUCGAUAAACUUGAGGAUCACCCAAGUAGAAGGAGCUUGCC [salish99_ex2_r4_023] (Eterna round: R97, puzzle: Exclusion 2)”, the “apparent KD of MS2 coat protein” value (input ligand: FMN 200 uM) was found to be 21.8 nM and the “apparent KD of MS2 coat protein” value (input ligand: none) was 35.4 nM.
“GGUGGUAUUGUUAGGAUAUGGCAUGCCCGAGGCGUCUAGAAGGGACAUGAGGAUCACCCAUGUCUAGAAUUAAU [Eternabot (L2) Solution 53] (Eterna round: R97, puzzle: Brourd's mod of Exclusion 4)”: the “apparent KD of MS2 coat protein” value is 41.2 nM (input ligand: FMN 200 uM) and 45.5 nM (input ligand: none).
Turning to “GGUGUCUUCAGAAGACAUGAGGAUCACCCAUGUAAAUGCACUGAGGAUAUACGGGCGACCGGCGUGUAGAAGGUAGAGCACGAA [Bivezale] (Eterna round: R96, puzzle: Exclusion NG 3)”, the “apparent KD of MS2 coat protein” value came to 13.7 nM (input ligand: FMN 200 uM); 8.37 nM (input ligand: microRNA oligo, concentration not stated); 17.5 nM (input ligand: none).
“GGUUAGGCAGGAUAUACCCACAGUGUCUGUAGAAUCGCAAGACAUGAGGAUCACCCAUGUAGAAGGGCCGACCG [Eternabot (L1) Solution 1] (Eterna round: R97, puzzle: Exclusion 2)”: the “apparent KD of MS2 coat protein” value (input ligand: FMN 200 uM) was 184 nM and the “apparent KD of MS2 coat protein” value (input ligand: none) is 273 nM.
For “GGUUGACAUGAGGAUCACCCAUGUGAGGAUAUGCGAGAGAAAAAAGUGAGGAAGAAACGCAGAAGGCGCUGUCG [salish99-ex1_r3_010] (puzzle: Exclusion 1)”, the “apparent KD of MS2 coat protein” value runs as follows: under setting [2], 59.3 nM; under setting [1], 163 nM; under setting [3], 133 nM.
Taken in the same sequence, the figures for “GGUUGGCGAGGAUAUACAUGAGGAUCACCCAUGUGAGAAAAUAAGUGAGGAAAGAAAAGUAGAAGGCGCUGACG [Mat - Exclusion 3 - Mod of Salish D53] (puzzle: Exclusion 3)” were 570 nM, 55.8 nM and 37.1 nM.
As to “GGUUGGCGAGGAUAUACAUGAGGAUCACCCAUGUGAGAGAAAAACGUGAGGAAGAAAAGUAGAAGGCGCUGACG [salish99_ex3_r3_025] (puzzle: Exclusion 3)”, the “apparent KD of MS2 coat protein” value under setting [2] came out at 36.4 nM, the “apparent KD of MS2 coat protein” value under setting [1] came out at 81.6 nM and the “apparent KD of MS2 coat protein” value under setting [3] was 65.6 nM.
With “GGUUGGCGAGGAUAUACAUGAGGAUCACCCAUGUGAGAGAAAGAAGUGAGGAAGAAAAGUAGAAGGCGUUGACG [salish99_ex3_r3_053] (puzzle: Exclusion 3)”, the “apparent KD of MS2 coat protein” value runs as follows: under setting [2], 50.6 nM; under setting [1], 55.4 nM; under setting [3], 71.7 nM.
Take “GGUUGGCGAGGAUAUACAUGAGGAUCACCCAUGUGAGAGAAGAAAGUGAGAACGAAAAGUAGAAGGCGCUGACG [salish99_ex3_r3_060] (puzzle: Exclusion 3)”: the “apparent KD of MS2 coat protein” value under setting [2] amounted to 2.08 nM, the “apparent KD of MS2 coat protein” value under setting [1] was determined as 43.8 nM and the “apparent KD of MS2 coat protein” value under setting [3] turned out to be 90.2 nM.
For “GGUUGGCGAGGAUAUACAUGAGGAUCACCCAUGUGCGAGAAAAAAGUGAGGAAGAAAAGUAGAAGGCGCUGACG [salish99_ex3_r3_018] (puzzle: Exclusion 3)” the same measures were 238 nM, 49.5 nM and 58.2 nM.
As for “GGUUGGCGAGGAUAUACAUGAGGAUCACCCAUGUGGUCCUGAAAAAAAAAAAACCUUUGUAGAAGGCGCGGGUC [salish99_ex3_r4_035] (Eterna round: R97, puzzle: Exclusion 3)”, the “apparent KD of MS2 coat protein” value runs as follows: (input ligand: FMN 200 uM) 256 nM; (input ligand: none) 150 nM.
For “GGUUGGCGAGGAUAUACAUGAGGAUCACCCAUGUGGUCCUGUGGCUAAAAAAACCUUUGUAGAAGGCGCGGGUC [salish99_ex3_r4_030] (Eterna round: R97, puzzle: Exclusion 3)” the same measures were 173 nM and 149 nM.

The values are drawn from the supplement of paper PMC9170038.
